B1: SA301a HC-G97A (antibody, name in Kabat numbering, V domains shown)
VH: QVQLQESGPGLVKPSQTLSLTCTVSGYSITSDYNSHWIRQPPGKGLEWIGYIHYSGSTNYNPSLKSRVTISRDTSKNQFSLKLSSVTAADTAVYYCARNYASIYVNYFDYWGQGTLVTVSS
VL: EIVLTQSPATLSLSPGERATLSCSASSSVSYMYWYQQKPGQAPRPLIYRTSNLASGIPARFSGSGSGTDFTLTISSLEPEDFAVYYCQQYHSYPTFGGGTKVEIK
notes: IgG1 kappa
B2: SA301a HC-G97I (antibody, name in Kabat numbering, V domains shown)
VH: B1 VH with A101I
VL: B1 VL
notes: IgG1 kappa
B3: SA301a HC-G97H (antibody, name in Kabat numbering, V domains shown)
VH: B1 VH with A101H
VL: B1 VL
notes: IgG1 kappa
B4: SA301a HC-G97E (antibody, name in Kabat numbering, V domains shown)
VH: B1 VH with A101E
VL: B1 VL
notes: IgG1 kappa
B5: SA301a HC-G97D (antibody, name in Kabat numbering, V domains shown)
VH: B1 VH with A101D
VL: B1 VL
notes: IgG1 kappa
B6: SA301a HC-G97K (antibody, name in Kabat numbering, V domains shown)
VH: B1 VH with A101K
VL: B1 VL
notes: IgG1 kappa
B7: SA301a HC-G97L (antibody, name in Kabat numbering, V domains shown)
VH: B1 VH with A101L
VL: B1 VL
notes: IgG1 kappa
B8: SA301a HC-G97F (antibody, name in Kabat numbering, V domains shown)
VH: B1 VH with A101F
VL: B1 VL
notes: IgG1 kappa
B9: SA301a HC-Y100D (antibody, V domains shown)
VH: B1 VH with A101G, Y104D
VL: B1 VL
B10: SA301a HC-Y100K (antibody, V domains shown)
VH: B1 VH with A101G, Y104K
VL: B1 VL
B11: SA301a HC-Y100S (antibody, V domains shown)
VH: B1 VH with A101G, Y104S
VL: B1 VL
B12: SA301a HC-Y100L (antibody, V domains shown)
VH: B1 VH with A101G, Y104L
VL: B1 VL
B13: SA301a HC-Y100M (antibody, V domains shown)
VH: B1 VH with A101G, Y104M
VL: B1 VL
B14: SA301a HC-Y100Q (antibody, V domains shown)
VH: B1 VH with A101G, Y104Q
VL: B1 VL
B15: SA301a HC-Y100A (antibody, V domains shown)
VH: B1 VH with A101G, Y104A
VL: B1 VL
B16: SA301a HC-Y100F (antibody, V domains shown)
VH: B1 VH with A101G, Y104F
VL: B1 VL
B17: SA301a HC-Y100H (antibody, V domains shown)
VH: B1 VH with A101G, Y104H
VL: B1 VL
B18: SA301a HC-Y100I (antibody, V domains shown)
VH: B1 VH with A101G, Y104I
VL: B1 VL
B19: SA301a HC-Y100P (antibody, V domains shown)
VH: B1 VH with A101G, Y104P
VL: B1 VL
B20: SA301a HC-Y100R (antibody, V domains shown)
VH: B1 VH with A101G, Y104R
VL: B1 VL
B21: SA301a HC-Y100E (antibody, V domains shown)
VH: B1 VH with A101G, Y104E
VL: B1 VL
B22: SA301a HC-Y100N (antibody, V domains shown)
VH: B1 VH with A101G, Y104N
VL: B1 VL
B23: SA301a HC-Y100T (antibody, V domains shown)
VH: B1 VH with A101G, Y104T
VL: B1 VL
B24: SA301a HC-Y100G (antibody, V domains shown)
VH: B1 VH with A101G, Y104G
VL: B1 VL
B25: SA301a HC-Y100V (antibody, V domains shown)
VH: B1 VH with A101G, Y104V
VL: B1 VL
B26: SA301a HC-N100bS (antibody, name in Kabat numbering, V domains shown)
VH: B1 VH with A101G, N106S
VL: B1 VL
notes: IgG1 kappa
B27: SA301a HC-V100aL (antibody, name in Kabat numbering, V domains shown)
VH: B1 VH with A101G, V105L
VL: B1 VL
notes: IgG1 kappa
B28: SA301a HC-V100aQ (antibody, name in Kabat numbering, V domains shown)
VH: B1 VH with A101G, V105Q
VL: B1 VL
notes: IgG1 kappa
B29: SA301a HC-V100aM (antibody, name in Kabat numbering, V domains shown)
VH: B1 VH with A101G, V105M
VL: B1 VL
notes: IgG1 kappa
B30: SA301a HC-V100aP (antibody, name in Kabat numbering, V domains shown)
VH: B1 VH with A101G, V105P
VL: B1 VL
notes: IgG1 kappa
B31: SA301a HC-N100bD (antibody, name in Kabat numbering, V domains shown)
VH: B1 VH with A101G, N106D
VL: B1 VL
notes: IgG1 kappa
B32: SA301a HC-V100aE (antibody, name in Kabat numbering, V domains shown)
VH: B1 VH with A101G, V105E
VL: B1 VL
notes: IgG1 kappa
B33: SA301a HC-N100bV (antibody, name in Kabat numbering, V domains shown)
VH: B1 VH with A101G, N106V
VL: B1 VL
notes: IgG1 kappa
B34: SA301a HC-N100bH (antibody, name in Kabat numbering, V domains shown)
VH: B1 VH with A101G, N106H
VL: B1 VL
notes: IgG1 kappa
B35: SA301a HC-V100aY (antibody, name in Kabat numbering, V domains shown)
VH: B1 VH with A101G, V105Y
VL: B1 VL
notes: IgG1 kappa
B36: SA301a HC-V100aR (antibody, name in Kabat numbering, V domains shown)
VH: B1 VH with A101G, V105R
VL: B1 VL
notes: IgG1 kappa
B37: SA301a HC-I99V (antibody, name in Kabat numbering, V domains shown)
VH: B1 VH with A101G, I103V
VL: B1 VL
notes: IgG1 kappa

Substitutions are numbered along the chain they refer to. In names and notes the source's numbering stands.

One assay has as its target T1, human IL-18BP (human, UniProt O95998 31-194).
T1 construct: UniProt printed as 095998; also called hIL-18BP
T1 sequence: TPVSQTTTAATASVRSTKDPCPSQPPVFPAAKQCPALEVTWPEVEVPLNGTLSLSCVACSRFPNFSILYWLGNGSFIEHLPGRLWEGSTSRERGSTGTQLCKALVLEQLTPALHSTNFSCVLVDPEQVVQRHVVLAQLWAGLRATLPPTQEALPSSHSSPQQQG
In words: BLI, apparent KD. A general note: BLI is a label-free optical method that tracks binding on a fibre tip over time.
Consider B1, for which the Kd is 0.44 nM.
Still for that read-out and setting: the value for B2 was 7.83 nM; that for B3 was 1.57 nM; that for B4 was 11.6 nM.
Same read-out and setting: for B5 the value was 0.46 nM; for B6, 1.46 nM.
Same read-out and setting: the value for B7 was 3.7 nM; that for B8 was 6.32 nM.

The next assay addresses T1, human IL-18BP. In words: BLI, apparent KD. The source holds these as a separate data set.
On to B9, for which the Kd was determined as 0.56 nM.
Take B10: the Kd amounted to 1.49 nM.
Still for that read-out and setting: the value for B11 was 0.72 nM.
The same measure, in the same setting: the value for B12 was 1.06 nM.
Same read-out and setting: the value for B13 was 2.07 nM.
As for B14, the Kd came to 1.88 nM.
Take B15: the Kd turned out to be 0.88 nM.
On the same count and under the same terms, the value for B16 was 0.1 nM; that for B17 was 1.3 nM.
On the same count and under the same terms, for B18 the value was 0.94 nM; for B19, 0.63 nM; for B20, 1.32 nM.
Still for that read-out and setting: the value for B21 was 0.61 nM; that for B22 was 0.9 nM.
Consider B23, for which the Kd came out at 1.08 nM.
On the same count and under the same terms, the value for B24 was 0.51 nM; that for B25 was 1.59 nM; that for B26 was 0.49 nM.
Same read-out and setting: the value for B27 was 2.54 nM; that for B28 was 0.45 nM.
Same read-out and setting: the value for B29 was 0.8 nM.
In the case of B30, the Kd worked out at 0.49 nM.
The same measure, in the same setting: for B31 the value was 2.3 nM.
Same read-out and setting: the value for B32 was 0.51 nM; that for B33 was 2.16 nM.
On to B34, for which the Kd was determined as 0.69 nM.
On the same count and under the same terms, for B35 the value was 27.7 nM.
Regarding B36, the Kd is 0.19 nM.
Same read-out and setting: the value for B37 was 0.05 nM.

The target of another assay is T2, cynomolgus IL-18BP (cynomolgus monkey).
T2 construct: also called cyno IL-18BP; cyIL-18BP
T2 chain: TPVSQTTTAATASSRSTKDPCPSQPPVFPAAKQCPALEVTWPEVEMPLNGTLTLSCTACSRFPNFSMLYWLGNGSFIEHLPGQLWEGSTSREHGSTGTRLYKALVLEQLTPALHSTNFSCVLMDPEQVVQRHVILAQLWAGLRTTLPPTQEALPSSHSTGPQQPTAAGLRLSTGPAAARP
In words: BLI, apparent KD.
As to B9, the Kd was 3.65 nM.
In the case of B10, the Kd amounted to 2.18 nM.
Still for that read-out and setting: the value for B11 was 3.27 nM; that for B12 was 1.41 nM.
With B13, the Kd was 2.28 nM.
On the same count and under the same terms, for B14 the value was 3.58 nM; for B15, 4.17 nM.
The same measure, in the same setting: for B16 the value was 0.26 nM; for B17, 1.1 nM; for B18, 1.02 nM.
The same measure, in the same setting: the value for B19 was 2.4 nM; that for B20 was 2.06 nM.
With B21, the Kd was 1.64 nM.
Same read-out and setting: for B22 the value was 3.59 nM; for B23, 4.48 nM.
Still for that read-out and setting: the value for B24 was 0.48 nM; that for B25 was 2.55 nM; that for B26 was 0.09 nM.
On the same count and under the same terms, the value for B27 was 0.81 nM.
Turning to B28, the Kd came to 0.1 nM.
The same measure, in the same setting: the value for B29 was 0.22 nM; that for B30 was 0.15 nM; that for B31 was 0.96 nM.
Same read-out and setting: for B32 the value was 0.22 nM; for B33, 1.16 nM; for B34, 1.03 nM.
Same read-out and setting: for B35 the value was 0.58 nM.
Regarding B36, the Kd was determined as 0.08 nM.
Same read-out and setting: the value for B37 was 0.33 nM.
